Assay results as given in publication PMC9672922 (Cellular and Molecular Gastroenterology and Hepatology, 2022).

How the values were obtained:
Assay in all cases: peptide or protein array
[1] = biological target: casein kinase 1ε (CK1ε) on the ProtoArray Human Protein Microarray (human, UniProt P49674 1-416)
[2] = biological target: glycogen synthase kinase 3β (GSK3β) on the ProtoArray Human Protein Microarray (human, UniProt P49841 1-420)
[3] = biological target: T1, chromosome 7 open reading frame 50 on the ProtoArray Human Protein Microarray (human, UniProt Q9BRJ6 1-194)
T1 sequence (looked up): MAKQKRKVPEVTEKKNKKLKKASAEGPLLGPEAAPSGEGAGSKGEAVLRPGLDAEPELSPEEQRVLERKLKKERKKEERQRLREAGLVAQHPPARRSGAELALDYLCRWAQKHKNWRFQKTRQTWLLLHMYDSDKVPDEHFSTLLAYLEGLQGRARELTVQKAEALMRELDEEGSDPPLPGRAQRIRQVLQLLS

[4] = biological target: carbonic anhydrase 1 on the ProtoArray Human Protein Microarray (human, UniProt P00915 1-261)
[5] = biological target: mitogen-activated protein kinase kinase 2 (MEK2) on the ProtoArray Human Protein Microarray (human, UniProt P36507 1-400)

Sequence of casein kinase 1ε (CK1ε) on the ProtoArray Human Protein Microarray (P49674 whole entry): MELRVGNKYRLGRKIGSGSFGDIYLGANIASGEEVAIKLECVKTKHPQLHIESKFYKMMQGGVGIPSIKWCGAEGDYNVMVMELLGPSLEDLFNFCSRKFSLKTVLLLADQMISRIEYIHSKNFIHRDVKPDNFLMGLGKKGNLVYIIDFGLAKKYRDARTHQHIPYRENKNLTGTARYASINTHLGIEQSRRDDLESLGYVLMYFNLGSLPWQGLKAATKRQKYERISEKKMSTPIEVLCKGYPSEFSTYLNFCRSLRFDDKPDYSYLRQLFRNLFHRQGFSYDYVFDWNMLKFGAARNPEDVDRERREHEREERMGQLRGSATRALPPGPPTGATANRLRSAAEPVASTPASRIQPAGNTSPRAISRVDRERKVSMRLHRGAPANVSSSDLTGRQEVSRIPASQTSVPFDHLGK
Sequence of glycogen synthase kinase 3β (GSK3β) on the ProtoArray Human Protein Microarray (P49841 whole entry): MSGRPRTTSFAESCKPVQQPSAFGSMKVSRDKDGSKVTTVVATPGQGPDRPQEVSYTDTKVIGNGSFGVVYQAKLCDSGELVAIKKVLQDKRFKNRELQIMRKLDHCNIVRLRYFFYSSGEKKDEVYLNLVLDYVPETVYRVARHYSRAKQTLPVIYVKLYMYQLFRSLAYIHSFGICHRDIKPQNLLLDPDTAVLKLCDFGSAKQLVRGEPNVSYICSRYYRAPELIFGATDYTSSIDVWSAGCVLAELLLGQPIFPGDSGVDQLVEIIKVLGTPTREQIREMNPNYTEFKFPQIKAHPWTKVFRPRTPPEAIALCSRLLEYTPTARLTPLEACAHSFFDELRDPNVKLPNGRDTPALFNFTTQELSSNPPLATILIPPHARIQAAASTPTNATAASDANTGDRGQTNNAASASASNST
Sequence of carbonic anhydrase 1 on the ProtoArray Human Protein Microarray (P00915 whole entry): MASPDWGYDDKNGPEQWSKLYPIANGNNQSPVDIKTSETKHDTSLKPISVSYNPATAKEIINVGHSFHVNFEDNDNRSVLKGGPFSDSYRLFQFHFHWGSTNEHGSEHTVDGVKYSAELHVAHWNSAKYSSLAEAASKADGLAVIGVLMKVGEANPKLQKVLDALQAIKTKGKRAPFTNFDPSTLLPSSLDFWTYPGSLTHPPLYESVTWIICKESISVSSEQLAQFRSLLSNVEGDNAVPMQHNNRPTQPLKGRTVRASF

- binding result [1]: binds
- binding result [2]: binds
- binding result [3]: binds
- binding result [4]: binds
- binding result [5]: binds
B1: V5-SRGY (RBMY amino acid residues 227–374, 4 repeated SRGY box domains) (domain or fragment, human, UniProt P0DJD3-1 227-374, looked up)
chain: ETRDYAPPSRGYAYRDNGHSNRDEHSSRGYRNHRSSRETRDYAPPSRGHAYRDYGHSRRDESYSRGYRNRRSSRETREYAPPSRGHGYRDYGHSRRHESYSRGYRNHPSSRETRDYAPPHRDYAYRDYGHSSWDEHSSRGYSYHDGYG
